± gives the uncertainty stated by the source.
Assay: self-splicing fitness, log relative to wild type (ln ratio); higher = more splicing; Tetrahymena group I intron in knt gene, E. coli kanamycin selection, DiMSum; sequences stand for … in CUCUCU…GGAGGGAAAAGUUAUCAGGCAUGCACCUGGUAGCUAGUCUUUAAACCAAUAGAUUGCAUCGGUUUAAAAGGCAAGACCGUCAAAUUGCGGGAAAGGGGUCAACAGCCGUUCAGUACCAAGUCUCAGGGGAAACUUUGAGAUGGCCUUGCAAAGGGUAUGGUAAUAAGCUGACGGACAUGGUCCUAACCACGCAGCCAAGUCCUAAGUCAACAGAUCUUCUGUUGAUAUGGAUGCAGUUCACAGACUAAAUGUCGGUCGGGGAAGAUGUAUUCUUCUCAUAAGAUAUAGUCGGACCUCUCCUUAAUGGGAGCUAGCGGAUGAAGUGAUGCAACACUGGAGCCGCUGGGAACUAAUUUGUAUGCGAAAGUAUAUUGAUUAGUUUUGGAGUACUCGUGGUCG
Summary of the method: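 A randomised library covering all eight P1ex-region intron nucleotides was built with the intron in the knt kanamycin-resistance gene on pET-22b(+) and held in E. coli BL21(DE3). Cells were grown overnight at 37°C or 30°C on LB agar, with or without 25 μg/mL kanamycin, plus 100 μg/mL carbenicillin, 50 μM IPTG and 0.2% rhamnose, and pooled colonies were amplicon-sequenced on an Illumina HiSeq 2500. DiMSum fitness is the error-weighted combination of wild-type-normalised replicate fold changes, kanamycin versus none.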

| Sequence | self-splicing fitness (ln) (30 °C) | self-splicing fitness (ln) (37 °C) |
| --- | --- | --- |
| UACGAGCAAUAUUACGAGUU | -2.32 ± 0.2 | -0.892 ± 0.23 |
| GUGCAGCAAUAUUACGUCUA | -0.238 ± 0.078 | 0.283 ± 0.083 |
| UGGUAGCAAUAUUACGCAUA | -1.11 ± 0.22 | -0.547 ± 0.17 |
| UUUAAGCAAUAUUACGUAUU | -2.16 ± 0.18 | -0.782 ± 0.21 |
| GGAAAGCAAUAUUACGCGCU | -3.27 ± 0.38 | -1.37 ± 0.26 |
| UAUAAGCAAUAUUACGCCAA | -1.14 ± 0.29 | -0.0916 ± 0.42 |
| GUUUAGCAAUAUUACGGAUC | -1.18 ± 0.11 | 0.125 ± 0.12 |
| UAGAAGCAAUAUUACGAGGU |  | -2.14 ± 0.2 |
| UCAUAGCAAUAUUACGGACG | -1.17 ± 0.15 | -1.11 ± 0.17 |
| GAGAAGCAAUAUUACGCCUG | -0.32 ± 0.098 | -0.385 ± 0.17 |
| AGGCAGCAAUAUUACGCGCC | -2.4 ± 0.32 | -0.401 ± 0.29 |
| GUAUAGCAAUAUUACGGAUG | -2.65 ± 0.39 | -1.99 ± 0.25 |
| AAGUAGCAAUAUUACGUACA | -0.476 ± 0.11 | -0.759 ± 0.14 |
| GAGAAGCAAUAUUACGCGCG | -0.394 ± 0.14 | 0.218 ± 0.16 |
| UACCAGCAAUAUUACGCCCA | -0.817 ± 0.1 | -0.342 ± 0.14 |
| UAGCAGCAAUAUUACGUUAU | -3.74 ± 0.23 | -2.92 ± 0.24 |
| AACCAGCAAUAUUACGUUCG | -2.59 ± 0.15 | -1.63 ± 0.13 |
| CGGAAGCAAUAUUACGUACU | -0.218 ± 0.071 | -0.296 ± 0.096 |
| AGCCAGCAAUAUUACGGAAU | -1.76 ± 0.12 | -1.52 ± 0.14 |
| GCUUAGCAAUAUUACGAUAC | -1.65 ± 0.2 | 0.185 ± 0.23 |

| Sequence | self-splicing fitness (ln) (30 °C) | self-splicing fitness (ln) (37 °C) |
| --- | --- | --- |
| AAAUAGCAAUAUUACGUCGU | -2.69 ± 0.17 | -1.55 ± 0.16 |
| ACACAGCAAUAUUACGAAGG | -1.75 ± 0.061 | -2.18 ± 0.11 |
| ACUGAGCAAUAUUACGCGAC | -2.51 ± 0.43 | -1.46 ± 0.29 |
| GCACAGCAAUAUUACGGUAA | -1.06 ± 0.075 | -0.547 ± 0.079 |
| UUGCAGCAAUAUUACGUCAC |  | -1.35 ± 0.29 |
| GCUGAGCAAUAUUACGAUGA | -1.11 ± 0.13 | -1.07 ± 0.15 |
| UUGCAGCAAUAUUACGUGAA | -1.12 ± 0.069 | -0.162 ± 0.086 |
| CAAUAGCAAUAUUACGCUCA | -0.892 ± 0.11 | -1.73 ± 0.14 |
| UUUUAGCAAUAUUACGGGAC | -2.5 ± 0.26 | -1.83 ± 0.47 |
| UGGGAGCAAUAUUACGGCAU |  | -2.47 ± 0.45 |
| GGCUAGCAAUAUUACGGUCC | -4.11 ± 0.33 | -2.97 ± 0.28 |
| UCGCAGCAAUAUUACGCUUG | -1.93 ± 0.14 | -1.83 ± 0.15 |
| CACCAGCAAUAUUACGAACC | -3.66 ± 0.28 | -0.707 ± 0.25 |
| UCAGAGCAAUAUUACGUUCA | -1.71 ± 0.27 | -2.48 ± 0.39 |
| UCAAAGCAAUAUUACGACCC | -3.88 ± 0.35 | -2.34 ± 0.39 |
| CAUCAGCAAUAUUACGCUGC |  | -2.61 ± 0.3 |
| AGAUAGCAAUAUUACGUAAC | -3.68 ± 0.35 | -2.01 ± 0.23 |
| AUGGAGCAAUAUUACGCAAU | -1.33 ± 0.19 | -1.44 ± 0.24 |
| CACUAGCAAUAUUACGGGAU | -4.27 ± 0.21 | -2.58 ± 0.15 |
| UAGAAGCAAUAUUACGGCCU | -0.838 ± 0.12 | -1.15 ± 0.15 |

Reference: the supplement of paper PMC7877785
